# Results from patent US20120213699A1 (BOARD OF TRUSTEES OF THE UNIVERSITY OF ILLINOIS, published 2012).
# B1: scFv 9B9 expressed on the phage surface (phages with the λ fragment) (scFv)
# scFv: QVQLKESGPGLVAPSQSLSITCTVSGFSLTTYGVHWVRQPPGKGLEWLGVIWGGGNTNYNSALMSRLNITKDNSKRQVFLKMNSLQADDTGMYYCARGWDSWGQGTTLTVSSAKTTPPKLEEGEFSEARVQAVVTQESALTTSPGETVTLTCRSSTGAVTTNNYANWVQENPDHLFTGLIDGTNTRSPGVPARFSGSLIGDKAALTITGAQTEDEAIYFCALWYSNHWVFGGGTKLTVLGQ
# notes: also called scFv 9B9 phages; 9B9 scFv phages; not shown: phage coat protein fusion partner from phagemid pSEX 81
# Target: T1, BSA (UniProt P02769 25-607)
# T1 construct: Negative control coating; also called bovine serum albumin
# Test: phage ELISA on coated plates, anti-M13 peroxidase
# T1 sequence (P02769 25-607 limits assumed): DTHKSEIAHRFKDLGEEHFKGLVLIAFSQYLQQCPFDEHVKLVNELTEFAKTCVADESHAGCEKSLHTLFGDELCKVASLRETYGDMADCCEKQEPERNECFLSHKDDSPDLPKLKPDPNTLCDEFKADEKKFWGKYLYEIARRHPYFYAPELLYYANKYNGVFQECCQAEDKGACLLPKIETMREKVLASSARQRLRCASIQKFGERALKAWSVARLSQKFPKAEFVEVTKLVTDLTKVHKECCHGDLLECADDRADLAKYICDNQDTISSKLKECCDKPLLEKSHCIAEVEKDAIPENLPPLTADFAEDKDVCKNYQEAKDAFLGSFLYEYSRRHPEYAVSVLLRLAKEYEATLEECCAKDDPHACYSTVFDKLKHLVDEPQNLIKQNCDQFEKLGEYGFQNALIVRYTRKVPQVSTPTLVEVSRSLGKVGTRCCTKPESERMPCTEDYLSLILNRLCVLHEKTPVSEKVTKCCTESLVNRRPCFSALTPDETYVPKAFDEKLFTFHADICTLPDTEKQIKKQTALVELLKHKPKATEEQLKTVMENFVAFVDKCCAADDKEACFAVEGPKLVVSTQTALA
binder,measurement,value
B1,binding result,no binding (tested: 5 µg/ml (coating))
